Laboratory results reported in patent US20130281659.

B1: AMSH (protein)
chain: MSDHGDVSLPPEDRVRALSQLGSAVEVNEDIPPRRYFRSGVEIIRMASIYSEEGNIEHAFILYNKYITLFIEKLPKHRDYKSAVIPEKKDTVKKLKEIAFPKAEELKAELLKRYTKEYTEYNEEKKKEAEELARNMAIQQELEKEKQRVAQQKQQQLEQEQFHAFEEMIRNQELEKERLKIVQEFGKVDPGLGGPLVPDLEKPSLDVFPTLTVSSIQPSDCHTTVRPAKPPVVDRSLKPGALSNSESIPTIDGLRHVVVPGRLCPQFLQLASANTARGVETCGILCGKLMRNEFTITHVLIPKQSAGSDYCNTENEEELFLIQDQQGLITLGWIHTHPTQTAFLSSVDLHTHCSYQMMLPESVAIVCSPKFQETGFFKLTDHGLEEISSCRQKGFHPHSKDPPLFCSCSHVTVVDRAVTITDLR
B2: IsoT (protein)
chain: MAELSEEALLSVLPTIRVPKAGDRVHKDECAFSFDTPESEGGLYICMNTFLGFGKQYVERHFNKTGQRVYLHLRRTRRPKEEDPATGTGDPPRKKPTRLAIGVEGGFDLSEEKFELDEDVKIVILPDYLEIARDGLGGLPDIVRDRVTSAVEALLSADSASRKQEVQAWDGEVRQVSKHAFSLKQLDNPARIPPCGWKCSKCDMRENLWLNLTDGSILCGRRYFDGSGGNNHAVEHYRETGYPLAVKLGTITPDGADVYSYDEDDMVLDPSLAEHLSHFGIDMLKMQKTDKTMTELEIDMNQRIGEWELIQESGVPLKPLFGPGYTGIRNLGNSCYLNSVVQVLFSIPDFQRKYVDKLEKIFQNAPTDPTQDFSTQVAKLGHGLLSGEYSKPVPESGDGERVPEQKEVQDGIAPRMFKALIGKGHPEFSTNRQQDAQEFFLHLINMVERNCRSSENPNEVFRFLVEEKIKCLATEKVKYTQRVDYIMQLPVPMDAALNKEELLEYEEKKRQAEEEKMALPELVRAQVPFSSCLEAYGAPEQVDDFWSTALQAKSVAVKTTRFASFPDYLVIQIKKFTFGLDWVPKKLDVSIEMPEELDISQLRGTGLQPGEEELPDIAPPLVTPDEPKGSLGFYGNEDEDSFCSPHFSSPTSPMLDESVIIQLVEMGFPMDACRKAVYYTGNSGAEAAMNWVMSHMDDPDFANPLILPGSSGPGSTSAAADPPPEDCVTTIVSMGFSRDQALKALRATNNSLERAVDWIFSHIDDLDAEAAMDISEGRSAADSISESVPVGPKVRDGPGKYQLFAFISHMGTSTMCGHYVCHIKKEGRWVIYNDQKVCASEKPPKDLGYIYFYQRVAS
B3: A20-OTU (protein)
chain: LVALKTNGDGNCLMHATSQYMWGVQDTDLVLRKALFSTLKETDTRNFKFRWQLESLKSQEFVETGLCYDTRNWNDEWDNLIKMASTDTPMARSGLQYNSLEEIHIFVLCNILRRPIIVISDKMLRSLESGSNFAPLKVGGIYLPLHWPAQECYRYPIVLGYDSHHFVPLVTL

Assays:
[1] = target: K48C, K63C-linked branched Ub trimer
[2] = target: K11C, K48C-linked branched Ub trimer
[3] = target: K6C, K48C-linked branched Ub trimer

Protein | DUB-catalyzed hydrolysis of Ub trimer, SDS-PAGE and western blot [1] | DUB-catalyzed hydrolysis of Ub trimer, SDS-PAGE and western blot [2] | DUB-catalyzed hydrolysis of Ub trimer, SDS-PAGE and western blot [3]
B1 | the presence of a Ub appendage at position 48 does not influence cleavage of the K63C-linkage as indicated by the formation of Ub2 and Ub upon hydrolysis of the K48C, K63C-linked trimer | – | –
B2 | IsoT efficiently processed all three trimers as evidenced by Western blot analysis | IsoT efficiently processed all three trimers as evidenced by Western blot analysis | IsoT efficiently processed all three trimers as evidenced by Western blot analysis
B3 | A20-OTU cleaved the K48C-linkage in K11C, K48C and K48C, K63C-linked trimers | A20-OTU cleaved the K48C-linkage in K11C, K48C and K48C, K63C-linked trimers | the same linkage remained intact in the K6C, K48C-linked trimer
